# Patent US20230026666A1 (CATHOLIC UNIVERSITY OF AMERICA, published 2023)
# How the values were obtained:
# [1] = target: T1, soluble human CD4 receptor with full-length extracellular domain (amino acids 1-370) (human, UniProt P01730 26-396); test: ELISA, 0.1 ug protein coated per well, soluble CD4 added, detected with anti-CD4 antibody Sim.2
# T1 construct: extracellular domain; also called soluble CD4; recombinant soluble CD4 (NIH AIDS Reagent program, 4615)
# CD4 receptor on cells = target: T2, CD4 receptor on cells (human, UniProt P01730 26-458); test: cell binding assay, protein coated, A3.01, A2.01 and Tzmbl cells added, CellTiterGlo detection
# T2 construct: whole, on cells; also called CD4 receptor on T cells; CD4+ T cells (A3.01, A3R5, J-Lat 10.6, human PBMC)
binder,measurement,setting,value
"Hoc (highly antigenic outer capsid protein), N-terminal hexa-histidine tag (other, Negative control) HHHHHHMTFTVDITPKTPTGVIDETKQFTATPSGQTGGGTITYAWSVDNVPQDGAEATFSYVLKGPAGQKTIKVVATNTLSEGGPETAEATTTITVKNKTQTTTLAVTPASPAAGVIGTPVQFTAALASQPDGASATYQWYVDDSQVGGETNSTFSYTPTTSGVKRIKCVAQVTATDYDALSVTSNEVSLTVNKKTMNPQVTLTPPSINVQQDASATFTANVTGAPEEAQITYSWKKDSSPVEGSTNVYTVDTSSVGSQTIEVTATVTAADYNPVTVTKTGNVTVTAKVAPEPEGELPYVHPLPHRSSAYIWCGWWVMDEIQKMTEEGKDWKTDDPDSKYYLHRYTLQKMMKDYPEVDVQESRNGYIIHKTALETGIIYTYP",binding result,[1],no binding
same,binding result,CD4 receptor on cells,no binding (tested: 15 pmoles per well)
